{
  "source": "patent US20080279855A1",
  "about": "“Dna Replication Modulating Peptides, Nucleic Acids Encoding Them, and Their Use in Pharmaceutical Compositions” (CENTRE NATIONAL DE LA RECHERCHE SCIENTIFIQUE, priority 2004, published 2008)",
  "molecules": {"B1": {"name": "HsGem(76-160): deletion mutant of human Geminin, residues 76-160, hexahistidine-tagged, expressed in E. coli (protein)", "chain": "KNLGGVTQESFDLMIKENPSSQYWKEVAEKRRKALYEALKENEKLHKEIEQKDNEIARLKKENKELAEVAEHVQYMAELIERLNG", "modifications": "hexahistidine tag", "notes": "deletion mutant of human Geminin, residues 76-160, hexahistidine-tagged, expressed in E. coli"}, "B2": {"name": "HsGem(80-212): form of HsGeminin (residues 80-212) with the coiled-coil domain plus the entire carboxy-terminal part (protein)", "chain": "GVTQESFDLMIKENPSSQYWKEVAEKRRKALYEALKENEKLHKEIEQKDNEIARLKKENKELAEVAEHVQYMAELIERLNGEPLDNFESLDNQEFDSEEETVEDSLVEDSEIGTCAEGTVSSSTDAKPCI"}, "B3": {"name": "wild type protein: total amino acid sequence of human Geminin, about 25 kDa negative regulator of genome replication (protein, listed as Homo sapiens)", "chain": "MNPSMKQKQEEIKENIKNSSVPRRTLKMIQPSASGSLVGRENELSAGLSKRKHRNDHLTSTTSSPGVIVPESSENKNLGGVTQESFDLMIKENPSSQYWKEVAEKRRKALYEALKENEKLHKEIEQKDNEIARLKKENKELAEVAEHVQYMAELIERLNGEPLDNFESLDNQEFDSEEETVEDSLVEDSEIGTCAEGTVSSSTDAKPCI"}, "B4": {"name": "HsGem(82-145): deletion mutant of human Geminin, residues 82-145, hexahistidine-tagged, expressed in E. coli (protein)", "chain": "TQESFDLMIKENPSSQYWKEVAEKRRKALYEALKENEKLHKEIEQKDNEIARLKKENKELAEVA"}, "B5": {"name": "HsGem(82-160): deletion mutant of human Geminin, residues 82-160, hexahistidine-tagged, expressed in E. coli (protein)", "chain": "TQESFDLMIKENPSSQYWKEVAEKRRKALYEALKENEKLHKEIEQKDNEIARLKKENKELAEVAEHVQYMAELIERLNG", "modifications": "hexahistidine tag", "notes": "deletion mutant of human Geminin, residues 82-160, hexahistidine-tagged, expressed in E. coli"}},
  "test_system": "DNA synthesis in Xenopus egg extracts",
  "test": "in vitro DNA replication (DNA synthesis inhibition) assay in Xenopus egg extracts, alpha-32P dCTP incorporation",
  "format": "biochemical",
  "conditions": "for inhibition of DNA synthesis (in words): sperm nuclei 3 ng/μl, 2 hours at room temperature",
  "experimental": "The capacity of a compound to inhibit DNA replication can be measured as described in Example 3, by following the general method given in Blow, J. J. & Laskey, R. A. (1986). Initiation of DNA replication in nuclei and purified DNA by a cell-free extract of Xenopus eggs. Cell 47, 577-87\nFIG. 3A represents the activity of HsGeminin deletion mutants. The DNA synthesis inhibition activity of a series of HsGeminin deletion mutant proteins was measured by incubation in Xenopus egg extracts. […] DNA synthesis was measured by incorporation of a radioactive label DNA precursor (dCTP) upon 2 hours incubation at room temperature. Numbers indicate the amino-acids of the HsGeminin protein. LZ=coiled-coil domain.\nIn order to determine whether a homodimer form of Geminin is functional, the Inventors have tested the ability of this peptide to inhibit DNA synthesis in an in vitro DNA replication assay derived from Xenopus eggs^18.\nBriefly, Xenopus egg extracts were prepared as previously described^35. Inhibition assays were carried out in a 20 μl reaction containing 3 ng/μl of sperm nuclei and the indicated amounts of proteins at 1:40 ratio (protein to extract). Replication was measured by incorporation of α^32P dCTP following 2 hours incubation at room temperature.",
  "note": "“Also recorded” adds a separate entry of the source.",
  "data": [
    {"molecule": "HsGem-LZ: residues Leu110-Ala145 of human Geminin with an extra N-terminal capping Thr residue, made by Fmoc solid-phase peptide synthesis", "values": [
      {"measurement": "interference with DNA synthesis at concentration much higher than wild-type protein", "setting": "e.g. 320 nM", "value": "did not interfere with DNA synthesis"},
      {"measurement": "inhibition of DNA synthesis (in words)", "value": "non-functional"}
    ]},
    {"molecule": "B1", "values": [
      {"measurement": "inhibition of DNA synthesis (in words)", "value": "Full inhibition"}
    ]},
    {"molecule": "B2", "values": [
      {"measurement": "inhibition of DNA synthesis (in words)", "value": "keep the ability of Geminin to inhibit DNA synthesis; also recorded: Full inhibition"},
      {"measurement": "inhibition of DNA synthesis (in words)", "setting": "listed as HsGeminin (residues 80-212)", "value": "effective in inhibiting DNA synthesis"}
    ]},
    {"molecule": "B3", "values": [
      {"measurement": "inhibition of DNA synthesis (in words)", "value": "efficiently inhibited DNA synthesis"}
    ]},
    {"molecule": "B4", "values": [
      {"measurement": "inhibition of DNA synthesis (in words)", "value": "not functional"},
      {"measurement": "inhibition of DNA synthesis (in words)", "setting": "listed as mutant 82-145", "value": "ineffective in inhibiting DNA synthesis"}
    ]},
    {"molecule": "B5", "values": [
      {"measurement": "inhibition of DNA synthesis (in words)", "value": "inhibited DNA synthesis, although less efficiently compared to the wild-type protein"}
    ]}
  ]
}
